Source: patent publication US10513713B2, “Modified host cells having tolerance to α-olefins” (priority 2014, dated 2019)
Numbering of substitutions follows the chain as printed. In names and notes the source's numbering stands.

Columns and labels:
Type in all cases: cell-based
E. coli K12 [1] = assay: Survival test on agar plate with 1-octene overlay; conditions: 2 days at room temperature, FIG. 1B
Description: FIG. 1. Impact of styrene, 1-hexene and 1-octene on cell growth. A: The olefin compounds were added to different concentrations as indicated to an E. coli K12 culture at an OD600=0.2. OD was monitored after 2 hour at 37° C. The bars represent standard deviation between duplicates B: A survival test in presence of 1-octene was performed. Six different dilutions of a culture (10 cells to 10^7 cells, left to right) of E. coli K12 were spotted in triplicate on an agar plate. An overlay of 1-octene was added over the cells (controls had no overlay). Plates were incubated at room temperature for 2 days and then opened to allow evaporation of the olefin.
For agar plate based assays, cells were first streaked overnight and few colonies were used to inoculate a preculture of 6 mL of LB-Cm with glucose (2 g/L) and arabinose (5 mM). At OD60=1 at 37° C., the cultures were used to prepare a dilution series. Dilution 0 (D0) corresponds to the OD600, =1, and contains ˜10^9 cells/mL. Dilution 1 (D1) is a 10-fold dilution of D0, dilution 2 (D2) a 10-fold dilution of D1 up to dilution 5 (D5), which contains ˜10^4 cells/mL. 10 μL of each dilution was spotted in triplicate on LB-agar plates (single well plates, Thermo Scientific, Waltham, Mass.) containing 30 mL of LB-agar, Cm (30 mg/L), glucose (2 g/L) and arabinose (5 mM). […]

E. coli K12 [2] = assay: microbe, parasite or virus in culture; conditions: Escherichia coli, K12, 2 h, read-out: toxic dose (concentration of compound that decreased growth by half)
Description: A: The olefin compounds were added to different concentrations as indicated to an E. coli K12 culture at an OD600=0.2. OD was monitored after 2 hour at 37° C. The bars represent standard deviation between duplicates B: A survival test in presence of 1-octene was performed. Six different dilutions of a culture (10 cells to 10^7 cells, left to right) of E. coli K12 were spotted in triplicate on an agar plate. […] Plates were incubated at room temperature for 2 days and then opened to allow evaporation of the olefin.
In this example, toxicity of olefin compounds was evaluated. A toxic dose was defined as the concentration of compound that decreased growth by half.

E. coli K12 ΔacrAB [3] = assay: Growth in liquid culture with 1-hexene, styrene or bile salts, strains producing AcrAB or AcrB variants
Description: (§1) FIG. 2: impact of AcrAB production on growth, in presence of styrene 1-hexene, 1-octene and 1-nonene on cell growth. A: Different concentrations of styrene were added to an OD600=0.2 culture of E. coli K12 ΔacrAB containing the pABc (white) or the control plasmid p0c (black). OD density was monitored after 2 hours of growth at 37° C. The bars represent standard deviation between duplicates. B: A survival test in presence of 1-hexene, 1-octene, or 1-nonene saturated atmosphere was performed. Six different dilutions of cultures (10 cells to 10^7 cells, left to right on the figure) were spotted in triplicate on an agar plates. Plates were then exposed to the aforementioned chemicals.
FIG. 5: Impact of beneficial AcrB mutations on growth, in presence of 1-hexene and styrene. Different concentrations of 1-hexene (A), styrene (B), or bile salts (C) were added to an OD600=0.2 culture of E. Coli K12 ΔacrAB containing either the AcrB wild type (pABc) or the AcrB variants. OD densities were monitored after 2 hours of culture at 37° C. The bars represent standard deviation between duplicates.
Cells were first inoculated in 6 mL LB-Cm with glucose (2 g/L) and arabinose (5 mM). […] After 2 hours at 37° C., OD600 was measured. […]

E. coli K12 ΔacrAB [4] = assay: Survival assay on agar plate in olefin saturated atmosphere, strains producing AcrAB or AcrB variants
Description: as §1
FIG. 4: Impact of beneficial mutations on AcrB on tolerance to 1-hexene, A: Survival test of E. coli strain producing either the AcrB wild type or variants in a 1-hexene saturated atmosphere was performed. Two dilutions of cultures (Dilution 1: 10^5 cells and Dilution 2: 10^4 cells) were spotted in triplicate on an agar plate. B: Localization of the 6 beneficial mutations represented on the structure of a single monomer of AcrB or C: on the structure of the AcrB trimer.
FIG. 6: Impact of beneficial mutations on AcrB on tolerance to 1-hexene. A: Survival test of E. coli strain producing either the AcrB Wild type or variants with 1, 2 or several beneficial mutations, in an 1-hexene saturated atmosphere was performed. Two dilutions of cultures (Dilution 2: 10^4 cells and Dilution 3: 10^3 cells) were spotted in triplicate on an agar plate. B: Soluble fraction of total proteins from a culture of strains producing either the wild type, either the variant F617L, either the variant 6 (A279T, Q584R, F617L) were analyzed by western blot using anti-His antibody.
For agar plate based assays, cells were first streaked overnight and few colonies were used to inoculate a preculture of 6 mL of LB-Cm with glucose (2 g/L) and arabinose (5 mM). At OD60=1 at 37° C., the cultures were used to prepare a dilution series. Dilution 0 (D0) corresponds to the OD600, =1, and contains ˜10^9 cells/mL. Dilution 1 (D1) is a 10-fold dilution of D0, dilution 2 (D2) a 10-fold dilution of D1 up to dilution 5 (D5), which contains ˜10^4 cells/mL. 10 μL of each dilution was spotted in triplicate on LB-agar plates (single well plates, Thermo Scientific, Waltham, Mass.) containing 30 mL of LB-agar, Cm (30 mg/L), glucose (2 g/L) and arabinose (5 mM). Small containers (microfuge tube lids) were placed on the open lid of the agar plate and filled with 400 to 600 μL of 1-hexene or 1-octene or with 75 μL of 1-nonene. The agar plates were then inverted over the lid, cells facing the olefin compound, sealed with parafilm, placed in the plastic bag (the original packaging for the petri dishes) and incubated for 2 days at room temperature. For 1-octene, a second condition, via overlaying 2 mL of compound on the top of the agar submerging the cells, was used. TolC overexpression impact was examined using the same method, but in this case, the LB media and the LB-agar were also supplemented with ampicillin (100 mg/L) and IPTG (100 μM). […]

E. coli K12 wild type = assay: Survival test in 1-hexene saturated atmosphere on over-production of AcrA, AcrB and TolC; conditions: FIG. 3
Description: Six different dilutions of cultures (10 cells to 10^7 cells, left to right on the picture) were spotted in triplicate on an agar plate.
For agar plate based assays, cells were first streaked overnight and few colonies were used to inoculate a preculture of 6 mL of LB-Cm with glucose (2 g/L) and arabinose (5 mM). At OD60=1 at 37° C., the cultures were used to prepare a dilution series. Dilution 0 (D0) corresponds to the OD600, =1, and contains ˜10^9 cells/mL. Dilution 1 (D1) is a 10-fold dilution of D0, dilution 2 (D2) a 10-fold dilution of D1 up to dilution 5 (D5), which contains ˜10^4 cells/mL. 10 μL of each dilution was spotted in triplicate on LB-agar plates (single well plates, Thermo Scientific, Waltham, Mass.) containing 30 mL of LB-agar, Cm (30 mg/L), glucose (2 g/L) and arabinose (5 mM). […] The agar plates were then inverted over the lid, cells facing the olefin compound, sealed with parafilm, placed in the plastic bag (the original packaging for the petri dishes) and incubated for 2 days at room temperature. For 1-octene, a second condition, via overlaying 2 mL of compound on the top of the agar submerging the cells, was used. TolC overexpression impact was examined using the same method, but in this case, the LB media and the LB-agar were also supplemented with ampicillin (100 mg/L) and IPTG (100 μM).

## C=CCCCCCC [1-octene]
E. coli K12 [1]
  toxicity relative to the other olefins tested: less toxic
E. coli K12 [2]
  IC50: > 1000 µg/mL

B1: AcrA and AcrB: plasmid-borne wild type acrA and acrB in an operon under an arabinose inducible promoter (pABc) (protein, UniProt P0AE06 25-397; P31224 1-1049, looked up)
Multidrug efflux pump subunit … 1: CDDKQAQQGGQQMPAVGVVTVKTEPLQITTELPGRTSAYRIAEVRPQVSGIILKRNFKEGSDIEAGVSLYQIDPATYQATYDSAKGDLAKAQAAANIAQLTVNRYQKLLGTQYISKQEYDQALADAQQANAAVTAAKAAVETARINLAYTKVTSPISGRIGKSNVTEGALVQNGQATALATVQQLDPIYVDVTQSSNDFLRLKQELANGTLKQENGKAKVSLITSDGIKFPQDGTLEFSDVTVDQTTGSITLRAIFPNPDHTLLPGMFVRARLEEGLNPNAILVPQQGVTRTPRGDATVLVVGADDKVETRPIVASQAIGDKWLVTEGLKAGDRVVISGLQKVRPGVQVKAQEVTADNNQQAASGAQPEQSKS
Multidrug efflux pump subunit … 2: MPNFFIDRPIFAWVIAIIIMLAGGLAILKLPVAQYPTIAPPAVTISASYPGADAKTVQDTVTQVIEQNMNGIDNLMYMSSNSDSTGTVQITLTFESGTDADIAQVQVQNKLQLAMPLLPQEVQQQGVSVEKSSSSFLMVVGVINTDGTMTQEDISDYVAANMKDAISRTSGVGDVQLFGSQYAMRIWMNPNELNKFQLTPVDVITAIKAQNAQVAAGQLGGTPPVKGQQLNASIIAQTRLTSTEEFGKILLKVNQDGSRVLLRDVAKIELGGENYDIIAEFNGQPASGLGIKLATGANALDTAAAIRAELAKMEPFFPSGLKIVYPYDTTPFVKISIHEVVKTLVEAIILVFLVMYLFLQNFRATLIPTIAVPVVLLGTFAVLAAFGFSINTLTMFGMVLAIGLLVDDAIVVVENVERVMAEEGLPPKEATRKSMGQIQGALVGIAMVLSAVFVPMAFFGGSTGAIYRQFSITIVSAMALSVLVALILTPALCATMLKPIAKGDHGEGKKGFFGWFNRMFEKSTHHYTDSVGGILRSTGRYLVLYLIIVVGMAYLFVRLPSSFLPDEDQGVFMTMVQLPAGATQERTQKVLNEVTHYYLTKEKNNVESVFAVNGFGFAGRGQNTGIAFVSLKDWADRPGEENKVEAITMRATRAFSQIKDAMVFAFNLPAIVELGTATGFDFELIDQAGLGHEKLTQARNQLLAEAAKHPDMLTSVRPNGLEDTPQFKIDIDQEKAQALGVSINDINTTLGAAWGGSYVNDFIDRGRVKKVYVMSEAKYRMLPDDIGDWYVRAADGQMVPFSAFSSSRWEYGSPRLERYNGLPSMEILGQAAPGKSTGEAMELMEQLASKLPTGVGYDWTGMSYQERLSGNQAPSLYAISLIVVFLCLAALYESWSIPFSVMLVVPLGVIGALLAATFRGLTNDVYFQVGLLTTIGLSAKNAILIVEFAKDLMDKEGKGLIEATLDAVRMRLRPILMTSLAFILGVMPLVISTGAGSGAQNAVGTGVMGGMVTATVLAIFFVPVFFVVVRRRFSRKNEDIEHSHTVDHH
E. coli K12 ΔacrAB [3]; pABc vs p0c, styrene, FIG. 2A
  survival in the presence of styrene compared to control plasmid: enhanced survival
E. coli K12 ΔacrAB [4]; pump expression vs control plasmid, saturated atmosphere, FIG. 2B
  survival and growth in 1-hexene, 1-octene and 1-nonene: strong advantage
E. coli K12 wild type
  tolerance to 1-hexene on over-expression in the wild type strain: greater than the wild type

B2: Q584R: E. coli AcrB (SEQ ID NO:1) variant with amino acid mutation Q584R (protein)
chain: B1 Multidrug efflux pump subunit … 2 with Q584R
modifications: E. coli
E. coli K12 ΔacrAB [3]; bile salts, FIG. 5C
  growth of the strain in presence of bile salts: improved the growth
E. coli K12 ΔacrAB [4]; 1-hexene saturated atmosphere
  efficiency among the beneficial mutations: more efficient
E. coli K12 ΔacrAB [4]; single mutation AcrB variants, 1-hexene saturated atmosphere, FIG. 4A
  tolerance to 1-hexene relative to wild type AcrB sequence: improvement in tolerance
